{
  "source": "the nanobody polyreactivity screen of Harvey et al. (2022)",
  "data": [
    {"assay": "yeast display, Sf9 membrane polyspecificity reagent, FACS + sequencing; frameworks hold sequencing errors", "in_short": "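Genes from sorted yeast were amplified by colony PCR, read by MiSeq 2 × 250 sequencing and filtered on CDR length. These cells carried a synthetic nanobody library in Saccharomyces cerevisiae BJ5465 and were sorted by FACS into low and high (top ~1%) gates on anti-HA and streptavidin fluorescence. Polyreactivity is labelled according to the gate of origin.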", "values": [
      {"sequence": "QVQLVESGGGLVQAGGSLRLSCAASGSTFWPYAMGWYRQAPGKERELVAAITSSDVNTNYADSVKGRFTISRDNAKNTVYLQMNSLKPEDTAVYYCAADQYQYDPTYGYDYWGQGTQVTVSS", "polyreactivity (PSR sort gate)": "low polyreactivity"},
      {"sequence": "QVQLVESGGGLVQAGGSLRLSSAASGFTFGSYAMGWYRQAPGKERELVAAIRASGGRTYYADSVKGRFTISRDNAKNTVYLQMNSLKPEDTAVYYCAAQLPMGKRYYYWGQGTQVTVSS", "polyreactivity (PSR sort gate)": "high polyreactivity"},
      {"sequence": "QVQLVESGGGLVQAGGSLRLSSAASGRIIRAYAMGWYRQAPGKERELVADISGGSNTNYADSVKGRFTISRDNAKNTVYLQMNSLKPEDTAVYYCAADAGYWESLWYPYGFYWGQGTQVTVSS", "polyreactivity (PSR sort gate)": "low polyreactivity"},
      {"sequence": "QVQLVESGGGLVQAGGSLRLSCAASGFNFTAYAMGWYRQAPGKERELVAAISSGGSTNYADSVKGRFTISRDNAKNSVYLQMNSLKPEDTAVYYCAALLRGIEYDYWGQGTQVTVSS", "polyreactivity (PSR sort gate)": "high polyreactivity"},
      {"sequence": "QVQLVESGGGLVQAGGSLRLSCAAYGIIFTWYVMGWYRQAPGKERELVAAISASGASTYYADSVKGRFTISRDNAKNTVYLQMNSLKPEDTAVYYCAARYGWYPVRQPRPGGDYWGQGTQVTVSS", "polyreactivity (PSR sort gate)": "high polyreactivity"},
      {"sequence": "QVQLVESGGGLEQAGGSLRLSCAASGITLRVNAMGWYRQAPGKERELVAAITRGTNTYYADSVKGRFTISRDNAKNTVYLQMNSLKPEDTAVYYCAARLPYNAIGYYYWGQGTQVTVSS", "polyreactivity (PSR sort gate)": "low polyreactivity"},
      {"sequence": "QVQLVESGGGLVQAGGSLRLSCAASGFTFNGYAMGWYRQAPGHERELVAGITRRGGITYYADSVKGRFTISRDNAKNTVYLPMNSLKPEDTAVYYCARDYIGHALIHHASLYYYWGQGTQVTVSS", "polyreactivity (PSR sort gate)": "high polyreactivity"},
      {"sequence": "QVQLVESGGGLVQAGGSLRLSCAASGSILVYNAMGWYRQAPGKERELVAAISNTGRTYYAVSVKGRFTISRDIAKNTVYVQMNSLKPEDTAVYYCAAARTSTGSYRYEYWGQGTQGTVSS", "polyreactivity (PSR sort gate)": "high polyreactivity"},
      {"sequence": "QVQLVESGGGLVQAGGSLRLSCAASGRTFSYYAMGWYRQAPGKERELVAAIYRAGRTNYADSVKGRFTISRDNAKNNVYLQMHSLKPEDTAVYYCAADLAYGRPFVSYRTRACGQGTQVTVSS", "polyreactivity (PSR sort gate)": "high polyreactivity"},
      {"sequence": "PVQLVESGGGLVQAGGSLRLSCAASGRTFNSYPMVWYRQAPGKERELVADITSSGGSTYADSVKGRFTISRDNAKNTVYLQMNSLKPEDTAVYYCAVDNISNWAVENDYWGQGTQVTVSS", "polyreactivity (PSR sort gate)": "low polyreactivity"},
      {"sequence": "QVQLVESGGGLVQAGGSLRLSCAASGSIIYRNAMGWYRQAPGKERELDAAISYSGTSTNYADSVKGRFTISRDNAKNTVYLQMNSLKPEDTAVYYCAARGFPHRRHSLYDYWGQGTHVTVSS", "polyreactivity (PSR sort gate)": "low polyreactivity"},
      {"sequence": "QVQLVESGGGLVQAGGSLRLSCPASGLIFNSYAMGWYRQARGTERELVAAISRHGGITYYADSVKGRFTISRDHAKNTVYLQMNSLKPEDTAVYYCNADSSRRRYSSDYWGQGTQVTVSS", "polyreactivity (PSR sort gate)": "high polyreactivity"},
      {"sequence": "QEQLQESGGGLVQAGGSLRLSCAASGSISGSSTMGWYRPAPGKERELVASIAVGANTNYADSAKGRFTISRDNAKNTVYLQMNSLKPEDTAVYYCAVDYYIYYFHYWGQGTQVTVSS", "polyreactivity (PSR sort gate)": "high polyreactivity"},
      {"sequence": "QVQLVESGGGLVQAGGSLRLSCAASGFTFDFYAMGWYRPAPGKERELVAAISRSGGRTYYADSVKGRFTISRDNAKNTVYLQMNSLKPEDTAVYYCNTGFFYYNFRYYYWGQGTQVTVSS", "polyreactivity (PSR sort gate)": "low polyreactivity"},
      {"sequence": "QVQLGESVGGLVQAGGSLRLSCAASGFIIGYYAMGWYRPPPGTERELVAAISSTGGSTYYADSVKGRFTISRDNAKNTVYLQMNSLNPEDTAVYYCAKRFASYRYHPGYDYWGQGTQVTVSS", "polyreactivity (PSR sort gate)": "high polyreactivity"},
      {"sequence": "QVQLVESWGGLVQAGGSLRLSCAASGSIFDFNGMGCYRQAPGKERELVAAISGGGGSTYYADSVKGRFTISRDNAKNTVYLQMNSLKPEDTAVYYCAAAYSTYRFIYEYWGQATQVTVSS", "polyreactivity (PSR sort gate)": "high polyreactivity"},
      {"sequence": "QVQLVQSGGGLVHAGGSLRLSCAGSGSIFGTNAMGWYRQAPGKERELVATITSAGSTYYADSVKGRFTISRDYAKITFYLQMNSLKPEDTAVYYCARQATGYVYREYDYWGQGTQVSVSS", "polyreactivity (PSR sort gate)": "low polyreactivity"},
      {"sequence": "QVQLVETGAGLVQAGGSLRLSCAASGRTFDDNAMGWSRQATGEVRELVAAISSTGSTNYADSVKGRFTISRDNAKNTVYFQMNSLKPEDTAVYYCNTDRGHERAFYYWGQGTQVTVSS", "polyreactivity (PSR sort gate)": "low polyreactivity"},
      {"sequence": "QVQLVESGGGLVQAGGSLRLSCAASGFIFKVNAMGWYRQAPGKERELFAAISRRGVTTYYADSVKGRFTISRDNAKNTVYLQMNSLKPEDTAVYYCNRARSYGDTDKLAILADDYWGQGTKVTVSS", "polyreactivity (PSR sort gate)": "high polyreactivity"},
      {"sequence": "QVQLVESGGGLVQAGGSLRLSCAASGFTIGSNVMGWYRQAPGKERELVAAISSRGGSTYYADSVKGRFTISRDNAMNTVYLQMNSLKPEDTAVYDCAADAYYRGGWGDYWGQGTQVTVSS", "polyreactivity (PSR sort gate)": "high polyreactivity"},
      {"sequence": "QVQLVESGGGLVQAGGSLRLSCAASGITFYKYVMGWYRKAPGKERELVAAISSVGSTYYADSVKGRFTISRDNAKNTVYLQMNSLKPEDTAVYYCAAKYWKWYHYGFGYWGQGTQVTVSS", "polyreactivity (PSR sort gate)": "high polyreactivity"},
      {"sequence": "QDQLVESGGGLVQAGGSLRLSCAASGSILRQYAMGWYRQAPGKERELVATITGDGSTNYADSVKGRFTISRDNAKNTVYLQMHSLKPEDTAVYYCAVIGYHYSAISPPSQTRQGYDYWGQGTQVTVSS", "polyreactivity (PSR sort gate)": "low polyreactivity"},
      {"sequence": "QVQLVESGGGLVQAGGSLRLSCAASGFIFSWYDMGWYRQAPGKERELVAAISYSGSNTYYADSVKGRFTISRDNAKNTVYLQMNSLKPEDTAVYYCAATLGSRWAIYDYWGQGTQVTVSS", "polyreactivity (PSR sort gate)": "high polyreactivity"},
      {"sequence": "QVQLVESGGGLVQAGGSLRLTCAASGRTFNDYAMGWYRQAPGKEMELVAGITWRGGSTYYADSVKGRFTISRHNAKNTVYLQMNSLKPEDTAVYYCAVKRPWRKMGYWGQGTQVTVSS", "polyreactivity (PSR sort gate)": "high polyreactivity"},
      {"sequence": "QVQLVESGGGLVQAGGSLRLSCAASGFTFRGYAMGWYRPAPGKERELVAAITVRGGRTYYADSVKGRFTISRDNAKNTVYLQMNSLKPEETALYYCAKPVDRYTYSLYQQYDYWGQGTQVTVSS", "polyreactivity (PSR sort gate)": "high polyreactivity"},
      {"sequence": "QVPLVASGGGLVQAGGSLRLSCSASGRTFQYNAMGCYRQAPGKERELVAAITKRGTSTYFADSVKGRFTISRDNAKNTVYLQMNRLIPEDTAVYYCAALEGSLTGWQTYDYWGQGTQVTVSS", "polyreactivity (PSR sort gate)": "low polyreactivity"},
      {"sequence": "QVQLVESGGGLVQAGGSLRLSCAASGSIFDSNAMGWYRQAPGKERELVADIRGIGGSTYYADSVKGRFTISRDNAKNTVYLQMNSLKPEDTAVYYCNTSTLGGYYWGQGTQVTVSS", "polyreactivity (PSR sort gate)": "low polyreactivity"},
      {"sequence": "QVQLVESGGGLVQAGGSRRLSCAASGRIFTYYAMGWYRQAPGKERELVAAISSGGSTYYADSVKGRFTISRDNAKNTVYLQMNSLKPEDTAVYYCAAAGGYYGVNWRGDSWGQGTQVTVSS", "polyreactivity (PSR sort gate)": "high polyreactivity"},
      {"sequence": "QVQLVESGGGLVQAGGSLRLSCAASGRIFRRYAMGWYRQAHGKERELVAAITSGGRTYYADSVKGRFTISRDNAKNTVYLQMNSLKPEDTAVYYCAAKWTVGELDYWGQGTQVTVSS", "polyreactivity (PSR sort gate)": "high polyreactivity"},
      {"sequence": "QVQLVESGGGLVQAGGSLRLSCAASGRTFWKYAMGWYRQAPGKERELVAAITSSGGSTYYADSVKGRFTISRDNAKNTVYLQMNSLKPEDTAVYYCAAPGWGLGYNYWGQGTQVTVSS", "polyreactivity (PSR sort gate)": "low polyreactivity"},
      {"sequence": "QVQLVESGGGLVQAGGSLRLSCAASGSIFTFYAMGWYRQAPGKERELVAAITTIGGRTYYADSVKGRFTISRDNAKNTVYLQMNSLKPEDTAVYYCAAGYRAWEPYGHYGYWGQGTQVTVSS", "polyreactivity (PSR sort gate)": "high polyreactivity"},
      {"sequence": "QVQLVESGGGLVQAGGSLRFSSPASGGTFFVNAMGWYRQAPGKERELVASITLSGGSSYYADSVKGRFTISRDNAKNTVYLQMNSLKPEDTAVYYCAKGWTRDNEREREDEYWGQGTQGTVSS", "polyreactivity (PSR sort gate)": "low polyreactivity"},
      {"sequence": "QVQLVESGGGLVQAGGSLRLSCAASGSIFSAYVMGWYRQAPGKERELVAAITRSGGSTYYADSVKGRFTISRDNAKHTVYLQMNSLKPEDTAVYYCAAKSIIRPYAPRRDDMDYWGQGTQVTVSS", "polyreactivity (PSR sort gate)": "low polyreactivity"},
      {"sequence": "QVQLVESGGGLVQAGGSLRLSCAASGSTFTIYAMGWYRQAPGKERELVAGITRVGSTNYADSVKGRFTISRDNAKYTVYLQMNSLKPEDTAVYYCARRDLFQAGYEYWGQGTQVTVSS", "polyreactivity (PSR sort gate)": "low polyreactivity"},
      {"sequence": "QVQLVESGGGLVQAGGSLRLSCAASGLIFSVYAMGWYRQAPGKERELVARISINGGSTYYADSVKGRFTISRDNAKNTVYLQMNSLKPEDTAVYYCNAVRITHYVRYYYWGQGTQVTVSS", "polyreactivity (PSR sort gate)": "high polyreactivity"},
      {"sequence": "QVQLVESGGGLVQAGGSLRLSCAASGFTLGFYAMAWYRPAPGKERELVAAINWRGGSTYYADSVKGRFTISRYNAKNTVYLQMNSLKPADTAVYYSNRVYRPSLYDYWGQGTQVSVSS", "polyreactivity (PSR sort gate)": "high polyreactivity"},
      {"sequence": "QVQLVESGGGLVQAGGSLRLSCAASGRTFGRYAMGWYRQAPWKERELVAAITVGGGSTYYADSVKGRFTISRDNAKNTVYLQMNSLKPEDTAVYYCNALHTYTYRYDYYYWGQGTQVTVSS", "polyreactivity (PSR sort gate)": "high polyreactivity"},
      {"sequence": "QVQLVESGGGLVQAGGSLRLSCAASGNTFGFYAMGWYRQAPGKERELVAGITSGDSTYYADSVKGRFTISRDNEKNTVYLQMNSLKPVDTAVYYCNADFTDSYWSRYDYWGQGTQVTVSS", "polyreactivity (PSR sort gate)": "low polyreactivity"},
      {"sequence": "QVQLVESGGGLVQAGGSLRLSCAASGGTFTFYAMGWYRQAPGKERELVATINWSGGSTYYADSVKGRFTISRDNAKNTVYLQMNSLKPEDTAVYYCNAAWPYKSVEYWGQGTQVTVSS", "polyreactivity (PSR sort gate)": "low polyreactivity"},
      {"sequence": "QVQLVESGGGLVQAGGSLRLSCAASGRIIYKNAMGWYRQAPGKERELVAAITSSGGSTYYADSVKGRFTISRDNAKNTVYLQMYSLKPEDTAVYYCATDWPHWRKVYWFDYWGQGTQVTVSS", "polyreactivity (PSR sort gate)": "low polyreactivity"},
      {"sequence": "QVQLVESGGGLVQAGGSLRLSCAASGSIFTRNTMGWYRQAPGKERELVAAITSSGGSTYYADSVKGRFTISRDTAKNTVYLQMNSLKPEDTAVYYCAADVGVYYYSFYYWGQGTQVTVSS", "polyreactivity (PSR sort gate)": "high polyreactivity"},
      {"sequence": "QVQLVESGGGLVQAGGSLRLSCAASGRTFSVNAMGWYRQAPGKERELVAAISWDGGSTYYADSVKGRFTISRDNAKNTDYLQMNSLKPEDTAVYYCNKDLYYAYDYWRQGTQVTVSS", "polyreactivity (PSR sort gate)": "low polyreactivity"},
      {"sequence": "QVQLVESGGGLVQAGGSLRLSCAASGSIFPGNTMGWYRQAPGKERELVAVITKRGGRTYYADSVKGRFTISRDNAKNTVYLQMNSLKPEDTAVYYCARAPSYSTGVSIRDYWGQGTQVTVSS", "polyreactivity (PSR sort gate)": "high polyreactivity"}
    ]}
  ]
}
